# Measured values reported in the nanobody polyreactivity screen of Harvey et al. (2022).
# Assay: yeast display, Sf9 membrane polyspecificity reagent, FACS + sequencing; frameworks hold sequencing errors
# Outline: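 Galactose-induced (36–48 hours) yeast carrying a synthetic nanobody display library were exposed to 10% biotinylated, detergent-solubilized Sf9 membrane reagent at 4 °C for 1 hour. FACS followed streptavidin microbead enrichment, using low and high (top ~1%) gates for expression (anti-HA) and reagent binding (streptavidin). Colony PCR, MiSeq 2 × 250 sequencing and CDR-length filtering followed. Labels for polyreactivity reflect the gate of origin.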
row,Sequence,polyreactivity (PSR sort gate)
1,QVQIVESAGGLVQAGGSLSLSCAASGITYVFYALGWYRQEPGKERELVSDMSWSGGITYYADSVMGRFTISRDNAKNTVYLQMNSLKPEDPAVYYCAATKRQTKYYGGTTDSIMYYWGQGTQVTVSS,low polyreactivity
2,QVQLVESGGGIVQAGGSLRLSCAASGSTFILNAMGWYRQAPGKERALVATISSSDTSTYYADSVKGRFTISRDNAKNTVYLQMNSLKPEDTAVYYCNADDYTTSYLQRVYHYGVEYYYWGQGTQVTVSS,low polyreactivity
3,QVQLVESGGGLVQAGGSLRLSCAASGRIFKRYTMGWYRQAPGQERELVAGITFSGGSTYYADSVKGRFTISRDNAKNTVYLQMNSLKPEDTAVYYCNARVPPQGWGPWKAFDYWGQGTQVTVSS,low polyreactivity
4,QDKLVDSGGGLVQAGGSLRLSCAASGFIFGKYTMVWYRQAPGKERELVAAINRRGGSTYYADSVKGRFTISRDNAKNTVYLQMNSLKPEDTAVYYCAKDGYSLDRYYWGQGTQVTVSS,high polyreactivity
5,QVQLVETGAGLVQAGGRLRLSCDSSGSTFYVYYMGWYRQSPGKERELVAAISSGAGSTYYADSVKGRFTISRDNAKNTVYLQMNSLTRKIPRSSTALLFTVNGGGSRSHDYWAQGTQVTVSS,low polyreactivity
6,QVQLVESGVGLVQAGGSLRLSCAASGYTFRTNVMGWYRQAPGKERELVATINWRGGSTYYADSVKGRFTISRDNAKNTVYLQMNSLKPEDTAVYYCAADPGPYYDWGYDYWGQGTQVTVSS,low polyreactivity
7,QVQLVESGGGLVKAGGSLRLSCAASGRIFGYYAMGLDRQAPGQERELFAAITWSGGRTYYADSVKGRFTISRDNAKNTVYLQMKSLKPEDTAVYYCAAKTLGQQRKFDYWGQGTQVTVSS,high polyreactivity
8,QVQHVESGGGLVQAGGILRLICPDSGFTIRHKAMGWYRQAPGKEREFVAAISWYDGSTYADSVKGRFTISRDNAKYTVYIQLNCLKPEDTAVYFCNADYPSYRYFTGRHYWGQGTQVTVSS,low polyreactivity
9,QVQLVDSGGGLVHAGGSLRLSCAASGSTLIGNAMGWYRQAPWKERELVARISLRGGRTYYADSVKGRFTISRDNAKHTVYLQMNSLKPEDTAVYYCNRGGFSRYYYWGQGTQVTVSS,low polyreactivity
10,QVQLVESGGGLVQAGGSLRLSCAASGSTLYNYAMGWYRQAPGKERELVAAITKSGGRTYYADSVKGRFTISRDNAKNTVYLQMNSLKAEDTAVYYCAADRTQYARFDSWGQGTQVTVSS,high polyreactivity
11,QVQLQESGGGLVLAGGSLRLSCSASGNISVYGSMGWYRQSPGKEREFVATIDPGTNTNYADSVKDRFTISRDYAKNSVYLQMNSLKPEDTAVYYCAVEAGSDWPYRYWGQGTQVTVSS,low polyreactivity
12,QVQLVESGGGLLQAGGSLRLSCAASGRILFSYAMGWYRQAPGKERELVATISSGGRTNYADSVKGRFTISRDNAKNTVYLQMNSLKPEDTAVYYCNTEYLVWYAYDYGGQGTQVTVSS,low polyreactivity
13,QVLLQESGGGLVQAGGSLRLGCAASGTISPAYYMGRNHQAPGKEREFVAAITYGTNTYYADSVKGRFTISRDNAKNTVYLQMNSLKPEDTAVYYCSATAGYNGAHDYWGQGTQVTVSS,low polyreactivity
14,QVQLQESGGGLVQAGGSLRLTCAASGTIFRFRYMGWPRQAPGKERELVAGINGGTTTYYADSVIGRFTISRDNAKNTVYLQRNSLKPDDTAVYNCAAGASRLTYYDYWGQGTQVTVSS,low polyreactivity
15,QVQLVESGGGIVQAGGSLRLSCAASGSTLEPNAMGWYRQAPGKERELVAAITIGGSTYYADSVKGRFTISRDNAKYTVYLQMNSLKPEDTAVYYCAAKSTVQRRRHTNYDYWGQGTQVTVSS,high polyreactivity
16,QVQLVESGGGLVQAGGSLRLSCAASGFTFGSNAMGWYRQAPGKERELVAAIRSRGGSTYYADSVKGRFTISRDNAKNTVYLQMNSLKPEDTAVYYCAADFIGRDYDYWGQGTQVTVSS,high polyreactivity

row,Sequence,polyreactivity (PSR sort gate)
1,QVQLVESGGGSVQAGGRLRLSCAASGSIFGQYAMGWYRQAPGKERELVAAISDTDSTNYADSVKGRFTISRDNAKNTVYLQMNSLKPEDTAVYYCNADTWGYRLGYYYYKFDYWGQGTQVTVSS,low polyreactivity
2,QVQLVESGGGLVQAGGSLRLSCAASGFIFHVYAMGWYRQAPGKEREFVAGISWRGGRTYYADSVKGRFTISRDNAKNTVYLQLNSLKPEDTAVYYCAALGLNAGGKFDYWGQGTQVTVSS,high polyreactivity
3,QVQLVESGGGLVQAGGSLRLSCAASGRNFYVYGLGWYRQAPGKERELVASITYRGGSTSYADSVKGRFTISRDNAKNTVYLQMNSLKPEDTAVYYCNADTYYRYDYWGQGTQVTVSS,high polyreactivity
4,QVQLVESGGGLVQAGGSLRLSCAASGSTFPHYAMGWYRQAPGKERELVAAISVRGGRTYYADSVKGRFTISRDNAKNTVYLQMNSLKPEDTAVYYCNKYYYFTKYGYWGQGTQVTVSS,high polyreactivity
5,QVQLVESGGGLVQAGGSLRLRCAASGNIFDRYAMGWYRQAPGKERELVAAISWSDGTTYYADSVKGRFTISRDNAKNTVYLQMNTLKPEDTAVYNCAGVYTYPLGYYHYTYDDWGQGTQVSVSS,low polyreactivity
6,QVPLVESGGGLVQAGGRLRLRCAASAFTFDSYAMGWNRQAPGKERELVAAITWSGGSTYSADSVKGRFTISRDNAKNTVYLQMNSLQPEDTAVYYCNVYRYDGDYWGQGTQVPVSS,high polyreactivity
7,QVQLVESGGGLVQAGGSLRLSCAASGSIFPVYAMGWYRQAPGKQRELVAAITTAGRTYYADSVKGRFTISRDNAKNTVYLQMNSLKPEDTAVYYCNARSRKGLTVDGGYWGQGTQVTVSS,high polyreactivity
8,QVQLVESGGGLVQAGGSLRLSCAASGRIFVFNAMGWYRQAPGKEREFVAVISTGGGSTYYADSVKGRFTISRDNAKNTVYLQMNSLKPEDTAVYYCAAEWRVYYATYGYWGQGTQVTVSS,high polyreactivity
9,QVHHVESGGGLVQAGGSLRLSCAASGFTFDLYATVLSRQAPRKERELVAAITWRGGSTYYADSVKGRFAISRDNAKNTVYLQMNSLQPEDTAVYYCAADYVIVDDAWLITVEMDSWGQGTQVTVSS,low polyreactivity
10,QVQLVESGGGLVQAGGSLRLSCAASGRIFVYYAMGWYRQAPGNERELVAAITSGGTTYYADSVKGRFTISRDNAKNTVYLQMNSLKPEDTAVYYCAKVGRSDLGYDYWGQGTQVTVSS,low polyreactivity
11,QVQLVESGGGLVQAGGSLRLSCAASGSTFNSNVMGWYRQAPGKERELVAAISRSGGNTYYADSVKGRFTISRDNAKNTVYLQMNSLKPEDTAVYYCNKAGRYPYDYWGQGTQVTVSS,high polyreactivity
12,QVQLVESGGGLVQAGGSLRLSCAAYGRILYYYAMGWYRQAPGKETELVAAITETSGSTYYADSVKGRFTISRDNAKTTVYLQMNSLHPEDTAVYYCAASSTRGHYTAYDYWGQGTHVTVSS,low polyreactivity
13,QVQLVESGGGLVQAGGSLRLTCAASGSIFVQNAMGWYRQEPGKERELVATISRRGGSTYYADSVKGRFTISRDNAKNTVYLQMNSLKPEDPAVYYSAARKLRTLWGYWGQGTQVTVSS,high polyreactivity
14,QVQLVESGGGLVQAGGSLRLSCAASGFIIPVYAMGWYRQAPGKERELVAAITYSGARTYYADSVKGRFTISRDNAKNTVYLQMNSLKPEDTAVYYCAAAPGYLKYSPGHYGYNYWGQGTQVTVSS,high polyreactivity
15,QVQLVESGGGLVQAGGSLRLSCAASGRIFSHDVMGWYRQAPGKERELVAAISSSGGSTYYADSVKGRFTISRDNAKNTVYLQMNSLKPEDTAVYYCAADQWASGTDDYWGQGTEVTVSS,low polyreactivity
16,QVQLVESGGGLVQAGGSLRLSCAASGSTFWHNAMGWYRQAPGKERELVAAISYSGGNTNYADSVKGRFTISRDNAKNTVYLQMNSLKPEDTAVYYCNAPDVFPQAIYDYWGQGTQVTVSS,high polyreactivity
